# Laboratory results published in publication PMC10742460, “Lambda CI Binding to Related Phage Operator Sequences Validates Alignment Algorithm and Highlights the Importance of Overlooked Bonds”.
# Substitutions are numbered along the chain they refer to.
# B1: SOL3 (Stx2I OL3) (dsDNA)
# DNA 1: GGTTATTATGGGCTTCTTGAATAACAGCTGCAAGTGC
# DNA 2: GCACTTGCAGCTGTTATTCAAGAAGCCCATAATAACC
# B2: SOL2 (Stx2I OL2) (dsDNA)
# DNA 1: GGTTATTATGGTGTAATATTTTCTTACATGCAAGTGC
# DNA 2: GCACTTGCATGTAAGAAAATATTACACCATAATAACC
# B3: SOL1 (Stx2I OL1) (dsDNA)
# DNA 1: GGTTATTATGGCAATGATGATTTCATGCTGCAAGTGC
# DNA 2: GCACTTGCAGCATGAAATCATCATTGCCATAATAACC
# B4: SOR1 (Stx2I OR1) (dsDNA)
# DNA 1: GGTTATTATGGTTTCAGTTCAACCATAATGCAAGTGC
# DNA 2: GCACTTGCATTATGGTTGAACTGAAACCATAATAACC
# B5: VOR2 (VT2-SA OR2) (dsDNA)
# DNA 1: GGTTATTATGGATGCACAATGTGTATTTTGCAAGTGC
# DNA 2: GCACTTGCAAAATACACATTGTGCATCCATAATAACC
# B6: VOR3 (VT2-SA OR3) (dsDNA)
# DNA 1: GGTTATTATGGTATTACGCTCTGTACTGTGCAAGTGC
# DNA 2: GCACTTGCACAGTACAGAGCGTAATACCATAATAACC
# B7: VOL1 (VT2-SA OL1) (dsDNA)
# DNA 1: B6 DNA 1 with T14G, C19A, C21A, G28T
# DNA 2: B6 DNA 2 with C10A, G17T, G19T, A24C
# B8: LOR1 (lambda OR1) (dsDNA)
# DNA 1: GGTTATTATGGTACCTCTGGCGGTGATATGCAAGTGC
# DNA 2: GCACTTGCATATCACCGCCAGAGGTACCATAATAACC
# B9: VOL2 (VT2-SA OL2) (dsDNA)
# DNA 1: GGTTATTATGGCAATACAATTTGTTCTATGCAAGTGC
# DNA 2: GCACTTGCATAGAACAAATTGTATTGCCATAATAACC
# B10: SOR2 (Stx2I OR2) (dsDNA)
# DNA 1: GGTTATTATGGATGAGTACGATACTAAATGCAAGTGC
# DNA 2: GCACTTGCATTTAGTATCGTACTCATCCATAATAACC
# B11: LOL3 (lambda OL3) (dsDNA)
# DNA 1: GGTTATTATGGTATCACCGCAGATGGTTTGCAAGTGC
# DNA 2: GCACTTGCAAACCATCTGCGGTGATACCATAATAACC
# B12: VOL3 (VT2-SA OL3) (dsDNA)
# DNA 1: GGTTATTATGGTACAACGCTTTGTATTTTGCAAGTGC
# DNA 2: GCACTTGCAAAATACAAAGCGTTGTACCATAATAACC
# B13: LOR3 (lambda OR3) (dsDNA)
# DNA 1: GGTTATTATGGTATCACCGCAAGGGATATGCAAGTGC
# DNA 2: GCACTTGCATATCCCTTGCGGTGATACCATAATAACC
# B14: LOL1 (lambda OL1) (dsDNA)
# DNA 1: B13 DNA 1 with A21C, G24T, A26G
# DNA 2: B13 DNA 2 with T12C, C14A, T17G
# B15: LOL2 (lambda OL2) (dsDNA)
# DNA 1: B13 DNA 1 with T12C, T14A, A21C, G24A
# DNA 2: B13 DNA 2 with C14T, T17G, A24T, A26G
# B16: VOR1 (VT2-SA OR1) (dsDNA)
# DNA 1: GGTTATTATGGAAGTACATATTGTATTTTGCAAGTGC
# DNA 2: GCACTTGCAAAATACAATATGTACTTCCATAATAACC
# B17: LOR2 (lambda OR2) (dsDNA)
# DNA 1: GGTTATTATGGTAACACCGTGCGTGTTGTGCAAGTGC
# DNA 2: GCACTTGCACAACACGCACGGTGTTACCATAATAACC
# B18: SOR3 (Stx2I OR3) (dsDNA)
# DNA 1: GGTTATTATGGGGGCGAATTCTTTGCGCTGCAAGTGC
# DNA 2: GCACTTGCAGCGCAAAGAATTCGCCCCCATAATAACC
# Molecular target: T1, lambda CI repressor (Bacteriophage lambda, UniProt P03034 1-237)
# T1 sequence (P03034 whole entry): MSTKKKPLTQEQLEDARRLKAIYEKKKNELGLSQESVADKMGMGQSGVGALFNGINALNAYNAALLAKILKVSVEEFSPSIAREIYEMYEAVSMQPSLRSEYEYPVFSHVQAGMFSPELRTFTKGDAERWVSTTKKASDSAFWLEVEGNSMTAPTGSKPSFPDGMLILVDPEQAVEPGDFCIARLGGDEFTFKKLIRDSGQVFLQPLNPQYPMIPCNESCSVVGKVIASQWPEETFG
# Test: EMSA; apparent Kd; EMSA: 10 mM HEPES, 150 mM NaCl, pH 7.4; 50 nM DNA, 0.4-40 uM CI; 20 min at room temperature; 10% polyacrylamide gel, 1x TBE pH 8.3, SYBR Safe stain
# Details: protein: recombinant; tags: His-tag, TEV cleavage site with linker (pET 29b+); chain copies: 2; label: none (SYBR Safe stain)
row,Binder,Kd [µM]
1,B1,4.26 ± 0.27
2,B2,3.68 ± 0.47
3,B3,7.11 ± 1.27
4,B4,7.27 ± 2.39
5,B5,6.39 ± 2.75
6,B6,4.41 ± 0.99
7,B7,5.37 ± 1.16
8,B8,0.35 ± 0.03
9,B9,4.02 ± 0.16
10,B10,7.67 ± 2.62
11,B11,1.21 ± 0.08
12,B12,3.67 ± 0.1
13,B13,3.07 ± 1.13
14,B14,0.21 ± 0.02
15,B15,1.5 ± 0.17
16,B16,5.15 ± 2.39
17,B17,1.55 ± 0.29

# Molecular target: T1, lambda CI repressor
# Test: EMSA; apparent Kd; text gives error 3.10; EMSA: 10 mM HEPES, 150 mM NaCl, pH 7.4; 50 nM DNA, 0.4-40 uM CI; 20 min at room temperature; 10% polyacrylamide gel, 1x TBE pH 8.3, SYBR Safe stain
# Details: protein: recombinant; tags: His-tag, TEV cleavage site with linker (pET 29b+); chain copies: 2; label: none (SYBR Safe stain)
row,Binder,Kd [µM]
1,B18,7.68 ± 3.09
